# Measured values taken from US20150119475.
# Biological target: Snail protein (SNAI1/Snail, expressed as GST fusion in E. coli, GST moiety cleaved with thrombin) (UniProt O95863)
# Sequence (O95863 whole entry, the tested form may be a part): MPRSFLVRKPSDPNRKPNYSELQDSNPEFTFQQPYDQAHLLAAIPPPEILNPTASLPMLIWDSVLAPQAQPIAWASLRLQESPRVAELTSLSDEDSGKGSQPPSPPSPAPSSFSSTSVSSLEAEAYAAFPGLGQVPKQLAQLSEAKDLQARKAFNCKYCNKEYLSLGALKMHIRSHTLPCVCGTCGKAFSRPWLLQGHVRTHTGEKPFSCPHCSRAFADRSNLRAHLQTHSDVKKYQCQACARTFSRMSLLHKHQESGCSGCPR
substance,measurement,value
recombinant Akt3 (ProQinase GmbH),"in vitro kinase assay with 32P-ATP, detected by autoradiography",Akt1 and Akt3 kinases are able to directly phosphorylate Snail protein
